Measurements from the nanobody polyreactivity screen of Harvey et al. (2022).

assay: yeast display, Sf9 membrane polyspecificity reagent, FACS + sequencing; frameworks hold sequencing errors
In short: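 Sorting gates, low and high (top ~1%), were placed on anti-HA fluorescence to track expression and on streptavidin fluorescence to track reagent binding. A clone's polyreactivity label is taken from the gate it came out of. The reagent was 10% biotinylated, detergent-solubilized Sf9 membrane, applied for 1 hour at 4 °C to galactose-induced yeast display cells.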

| Sequence | polyreactivity (PSR sort gate) |
| --- | --- |
| QVQLVESGGGLVQGGSLRLSCAASGFTFPIYVMGWSRHAPGKEMELVASISSVGSTNYADSVKGRFTISRDNSKNTVYLQMNSLKPEDTAVYYCNADDPNSYGGFDYWGQGTQVTVSS | low polyreactivity |
| QVQLVESGGGLVQPGGILRLSCAASGYTFQVYAMGWYRQAPGKEREMVASIRWRGGRTYYADSVKGRFTISRDNAKNTVYLQMNSLKPEDTAVYYCAARQYVIYQTYYTYYYWGQGTQVSVSS | high polyreactivity |
| QVQLVESGGGLVQPGGSLRISCAASASTFFPYAMGWYRQAPGKERELVAAITGSGGSTYYADSVKGRFTISRDNAKNTVYLQMNSLKPEDTAVYYCNAVWEYYGKSDYWGQGTQVTVSS | low polyreactivity |
| QVQLVESGGGLVQPGGSLRLIFAASGSIFHYNAIGWYTQAPGKEREFVAVISKSSGSTFYADSVKGRFTISRDNAKNTVYLQMNSLKPEDTAVYYCNLVTKRYPIIGNYWGQGSQVTVSS | high polyreactivity |
| QVQLVESGGGLVQPGGSLRLSCAASGFILYGNAMGWYRQAPGKERELVAAISRRGGSTYYADSVKGRFTISRDNAKNTVYLQMNSLKPEDTAVYYCAKDGPGGGTRIYDYWGQGTQVTVSS | high polyreactivity |
| QVQLVESGGGLVQPGGSLRLSCAASGFTFRGYDMGWYRQAPGTERELVAGITWGDDSTYYADSVKGRFTISRDNAKNTVYLQMNSLKPEDTAVYYCATYFRVYYSQYDYWGEGTQVTVSS | high polyreactivity |
| QVQLVESGGGLVQPGGSLRLSCAASGRIFGWYARGWYRPAPGKERELVAAISRGGTRTNYADSVKGRFTISRDNAKNTVYLQMNSLKPEETAVYYCAARRYSRDFDYWGQGTQVTVSS | high polyreactivity |
| QVQLVESGGGLVQPGGSLRLSCAASGRIQRYYAMGWYRQAPGKERELVAVITSSDGSTYYADSVKGRFTISRDNAKNTVYLQMNRLKPEDTAVYYCAAAPLWRLASWWDPYRRYDYWGQGTLVTVSS | low polyreactivity |
| QVQLVESGGGLVQPGGSLRLSCAASGRTFGYNAMGWYRQAPGKERELVAAIRYSGGSTYYADSVKGRFTISRDNAKNTVYLQMNSLKPEDTAVYYCAAYSLFSSYGNDYWGQGTQVTVSS | high polyreactivity |
| QVQLVESGGGLVQPGGSLRLSCAASGRTIGVYAMGWYRQAPGKERELVAAITTSGDSTYYADSVKGRFTISRDNAKNTVYLQMNSLKPEDTAVYYCAADYYYVYSSFGHYYWGQGTQVTVSS | low polyreactivity |
| QVQLVESGGGLVQPGGSLRLSCAASGRTYYINAMGWYRQAPGKERELVATISKSGGSTNYADSEKGRFTISRDNAMNTFYLQMNSLKPEDTAVYYCAADTSGGSWGRGRWKFGYWGQGTQVTVSS | high polyreactivity |
| QVQLVESGGGLVQPGGSLRLSCAASGSIFYWYNMGWYRQAPGKERELVAAINDSGGSTHYADSVKGRFTISRDNEKNTFYLQMNSLKPEDTAVYYCAARKLSSYAYDYWGQGTQVTVSS | low polyreactivity |
| QVQLVESGGGLVQPGGSLRLSCAASGSTFSGYTMGWYRQAPGKERELVASISSGVSTYYADSVKGRFTISRDNAKNTVYLQMNSLKPEDTAVYYCAADSVGDYGYQVYASWGYEDEYWGQGTQVTVSS | low polyreactivity |
| QVQLVESGGGLVQPRGSLSLSCAASGYIFDYYDMGWYRPAPGKERELVAAISSSGGTTYYADSVKGRFTISRDNGKNTVYLQMNSLKPEDTAVYYCAAVAVLPRSDYWGQGTQVTVSS | high polyreactivity |
| QVQLVESGGGLVQSGGSLLLSCAPSGSTFYEYALGGYRQAPGKDRELVAAITSGGSTYYADSVKGRFTISRDNAKNNDYLQMNSLKPEETAVYYCAADPRIRRGDRSTHGYDYWGQGTQVTVSS | low polyreactivity |
| QVQLVESGGGLVQSGGSLRLSCAASGGTFVPYAMGWDIQAPGKERELVARISKRGGTTYYADSVKGRFTISRDTAKITVYLQMNSLKPEDTAVSSCAAVLPARGYYWGQGTQVTVSS | high polyreactivity |
| QVQLVESGGGLVQSGGSLRLSCAASGIIFLDYVMVWYRQAPGKERELVAAISLSAGSTNYADSVKGRFTISRDNAKNTVYLQMNSLKPEDTAVYYCAAEVLAVRDDGYRSDEMDYWGQGTQVTVSS | low polyreactivity |
| QVQLVESGGGLVQSGGSLRLSCAASGRIFRKYVMAWYRPAPGNERELVATISNRVGSTYYADSVKGRFTISRDKAKNTVYLQMNSLKPEDTAVYYCAAVSSYTAYDYWGQGTQVTVSS | high polyreactivity |
| QVQLVESGGGLVQSGGSLRLSCAASGRTFKYNAMGWYRQAPGKERELVAVIRYSGGTTYYADSVKGRFTISRDNAKNTVYLQMNSLKPEDTAVYYCAADSWSRSVNYYYWGQGTQVTVSS | low polyreactivity |
| QVQLVESGGGLVQSGGSLRLSCAASGRTYGYNAMGWYRQAPGKERELVAAISRSGDSTYYADSVKGRFTISRDNAKNTVYLQMNSLKPEDTAVYYCATRYVTTGYDYWGQGTQVTVSS | low polyreactivity |
| QVQLVESGGGLVQSGGSLRLSCAASGSFYYFYSMGWYRQAPGKEREVVAANTDGGSTHYAESVKGRFTISRDNAKNTVYLQMNSMKPEDTAVYSCAAQWHYYLGSGYQYDYWGQGTQVTVSS | low polyreactivity |
| QVQLVESGGGLVQSGGSLRLSCAASGSIFGSNAMGWYRQAPGKERELVAAISRSGTSTYYADSVKGRFTISRDNAKNTVDLQMTSLKPEDSAVYYSNTAQRYRVYRYDYWGQGTQVTVSS | high polyreactivity |

| Sequence | polyreactivity (PSR sort gate) |
| --- | --- |
| QVQLVESGGGLVQSGGSLRLSCAASGSIFIYYAMGWYRHAPGKERELVAAIDYSGDSTYYADSVKGRFTISRDNAKNTVYLQMNSLKPEDTAVYDCAVYYAGWGDYWGQGTQVTVSS | low polyreactivity |
| QVQLVESGGGLVQSGGSLRLSCAASGSTFVSNAMGWYRQAPGKERELVAAINGSGGITYYADSVKGRFTISRDNAKNTVYLQMNSLKPEDTAVYYCAAEYDGPSTWVDYYYHYGYWGQGTQVTVSS | low polyreactivity |
| QVQLVESGGGLVQSGGSLRLSCAASGSTLTFNAMGWYRQAPGKERELVAAISWSDTDTYYADSVKGRFTISRDNAKNTVYLQMNSLKPEDTAVYYCAATLSAYEMDYWGQGTQVTVSS | low polyreactivity |
| QVQLVESGGGLVQSGGSLRLSCAAYGNFFANNSMGWYRQAPGKERELVAAISQSGGNTYYADSVKGRFTISRDNAKNTVYLQMNSLKPEDTADYYCNAKTYGYNYDSWGQGTQVTVSS | low polyreactivity |
| QVQLVESGGGLVQSGGSLRLSSAAYGFIFPGNAMGWSRQAPGKEREMVAAISNSGSRTYYADSVKGRFTISRDHAKNTVYLQMNSLKPEDTAVYYCNADVHNRGWPYDYWGQGTQVTVSS | low polyreactivity |
| QVQLVESGGGLVQSGRSLRLICAASGSTSTQYAMGWYRQAPGKERELVAGITQSGGSTYYADSVKGRFTISRDNAKNTVYLQMNSLKPEDTAVYYCAAPPGYTGRYEYYYWGQGTQVTVSS | high polyreactivity |
| QVQLVESGGGLVQSRGSLRLSWAASGSTFTYNTMGWYRQAPGKERELVAAISSGGSTYYADSVKGRFTISRDNAKNTVFLQMNSLKPEDTAVYYCAATAQKDSRYGSRYYYWGQGTQVTVSS | high polyreactivity |
| QVQLVESGGGLVQTGGSLRLSCAASGRIFRSYAMGWNRQAPGKERELVAAISGSGGSTYYADSVKGRFTISRDNAKNTVSLQMNSLKPEDTAVYYCTAGKVHPFSTRFYYWGQGTQVTVSS | low polyreactivity |
| QVQLVESGGGLVQTGGSLRLSCAASGRILYTNAMGWYRQAPGKERELVAAISSGGRTTYADSVKGRFTISRDNAKNTVYLQMNSLKPEDTAVYYCAAGIRIYGTKRSRGYGYWGQGTQVTVSS | high polyreactivity |
| QVQLVESGGGLVQTGGSLRLSCAASGSTFYPNTMGWYRQAPGKERELVAAITNGGSTNYADSVKGRFTISRDNAKNTVYLQMNSLKPEDTAVYYCAALYYRFLLGWYKYGYWGQGTQVTVSS | high polyreactivity |
| QVQLVESGGGLVQVGCSLRLICAASGRTFWWYAMGGYRQAPGKERELVAAISRGSTNYADSVKGRFTISRDNAKNTVYLQMNSLKPEDTAVYYCNAVSLYQSHDYDYWGQGSQVTVSS | low polyreactivity |
| QVQLVESGGGLVQVGGSLRLSCAASGRTFGRYAMGWYRQAPGKERELVAAINSVARTNYADSVKGRFTISRDNAKNTVYLHMNSLKPEDTAVYYCAARYYYSGVTHAKRIAYYYWGQGTQVTVSS | high polyreactivity |
| QVQLVESGGGLVQVGGSLRLSCAASGRTVWWYAMGWYRQAPGKERELVAAISRGSTNYADSVKGRFTISRDNAKNTVYLQMNSLKPEDTAVYYCNAVSLYQSHDYDYWGQGTQVTVSS | low polyreactivity |
| QVQLVESGGGLYQAGGSLRLSSAASGRIFPWNTMGWYRQAPGKERELVAGINNGDRTYYADSVKGRFTISRDNAKNTVYLQMNSQKPEDTAVYYCAVDTWYFLFQYGYYQEGDYWGQGTQVTVSS | low polyreactivity |
| QVQLVESGGGVDQAGGSLRLSGAASGSTFHSYTMGWYRQAPGKERELVAAITRSGGSTYYADSGKGRFTISRETAKNTVYLQMNSQKPEDTAVYYCAVPYCRNSRLVDLAYHFYYWGQGTQVTVSS | high polyreactivity |
| QVQLVESGGGVGQAGGSLRLSCAASGYTFPDYAMGWYRQAPGKERELFAAIRSGGGTNYADSVKGRFTISRDNAKNTVYLLMNSLQPVDTAVYYSAKEWAGGLYDYWGQGTKVTVSS | low polyreactivity |
| QVQLVESGGGVVQAGGSLGLSCAASGRLFGYYAMGWYRQAPGKERELGAAINYSGGSTYYADSVKGRFTISRDNAKNTVYLQMNSLKPEDTAVYYCNAVRYTLLYYWGQGTQVTVSS | high polyreactivity |
| QVQLVESGGGVVQAGGSLRISCAASGRTFGVYAMGWYREAPGKERELVAAINRSGTRTYYADSVKGRFSISRDNPKNTVYLPMNSLKPEDTAVYYCAASWYPGSRNYDYWGQGTQVSVSS | high polyreactivity |
| QVQLVESGGGVVQAGGSLRLICAASGSTFHSYVMGWYRQAPWKERELVAAITSRGGSTNYADSVKGRFTISRDNAKNTVYLQLNSQKPEDTAVYCCAADGYLGWSYCRYDYWGQGTQVTVSS | low polyreactivity |
| QVQLVESGGGVVQAGGSLRLSCAACGSTFRSYAMGWYRQAPGTERELVAAISSGGRTYYADSVKGRFTITRDNAKNPVYLPMNSLKPEDTAVYYCAARLYAYRWYGYAFKYEYWGHGTQVTVSS | high polyreactivity |
| QVQLVESGGGVVQAGGSLRLSCAASGGIFRRNAMGWYRQAPGKERELVAAITRSGASTYDADSVKGRFTISRDNAKYTVYLQMNSLKPEDTAVYYCADAQLSAEYDYWGQGTQVTVTS | low polyreactivity |
